These results are taken from patent US20210221867A1 (Novo Nordisk, published 2021).

Positions of bridges follow the written chain, without caps; N, C: chain ends. Non-standard residues stand in square brackets, D forms with d. Nle = CCCC[C@H](N)C(=O)O

Assay [1] deals with T1, human MC1 receptor (human, UniProt Q01726 1-317). Kind of assay: cell-based or functional assay.
The target in assay [2] is T2, human MC4 receptor (human, UniProt P32245 1-332). As to the kind of experiment: cell-based or functional assay.
T2 sequence (P32245 whole entry): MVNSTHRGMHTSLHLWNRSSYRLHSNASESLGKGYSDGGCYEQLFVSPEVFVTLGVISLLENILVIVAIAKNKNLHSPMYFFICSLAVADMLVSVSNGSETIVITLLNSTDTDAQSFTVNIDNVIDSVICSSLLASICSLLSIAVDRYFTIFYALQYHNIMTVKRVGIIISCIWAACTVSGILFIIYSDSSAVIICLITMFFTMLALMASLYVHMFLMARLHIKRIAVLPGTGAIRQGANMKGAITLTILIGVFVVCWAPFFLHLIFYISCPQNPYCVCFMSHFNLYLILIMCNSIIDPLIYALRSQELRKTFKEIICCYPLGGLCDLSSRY
The target in assay [3] is T1, human MC1 receptor. As to the kind of experiment: SPA competition binding, displacement of 125I-NDP-α-MSH, BHK membranes with human MC1R. The procedure: (§1) The SPA Binding assay was performed in 96-well white opaque plates. Each well contained: 0.5 mg PVT-WGA SPA beads, MC1 receptor expressing membrane diluted to give approximately 10% specific tracer binding, 50.000 dpm ¹²⁵I-NDP-α-MSH and relevant dilutions of test compound. The final volume in each well was 200 μl. […] Plates were incubated overnight (22-24 hours) at room temperature before counting for 2 minutes per well, using a TopCount NXT scintillation counter. Displacement of radio ligand is measured as reduction in light emission from SPA beads, and IC₅₀ values are calculated by nonlinear regression analysis of sigmoidal dose-response curves in GraphPad Prism (GraphPad Software, La Jolla, Calif., USA).

In assay [4] the target is T2, human MC4 receptor. As to the kind of experiment: SPA competition binding, displacement of 125I-NDP-α-MSH, BHK membranes with human MC4R. How it is done: as §1, with “MC4” for “MC1”

T1 sequence (Q01726 whole entry): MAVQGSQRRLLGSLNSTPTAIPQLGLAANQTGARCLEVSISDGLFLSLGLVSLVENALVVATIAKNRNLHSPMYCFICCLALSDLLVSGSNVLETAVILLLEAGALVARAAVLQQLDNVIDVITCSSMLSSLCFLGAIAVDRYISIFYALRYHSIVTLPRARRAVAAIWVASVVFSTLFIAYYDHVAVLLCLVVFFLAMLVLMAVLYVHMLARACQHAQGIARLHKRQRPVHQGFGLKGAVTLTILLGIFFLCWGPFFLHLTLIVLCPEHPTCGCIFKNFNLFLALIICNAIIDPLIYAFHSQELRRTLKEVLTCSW

B1: Ac-Arg-c[Cys-Pro-His-D-Phe-His-Trp-Cys]-Pro-Pro-D-Arg-Glu-Nle-D-Arg-D-Arg-NH2 (peptide)
peptide: Ac-RCPH[dF]HWCPP[dR]E[Nle][dR][dR]-NH2
modifications: disulfide 2-8
SMILES: CCCC[C@H](NC(=O)[C@H](CCC(=O)O)NC(=O)[C@@H](CCCNC(=N)N)NC(=O)[C@@H]1CCCN1C(=O)[C@@H]1CCCN1C(=O)[C@@H]1CSSC[C@H](NC(=O)[C@H](CCCNC(=N)N)NC(C)=O)C(=O)N2CCC[C@H]2C(=O)N[C@@H](Cc2c[nH]cn2)C(=O)N[C@H](Cc2ccccc2)C(=O)N[C@@H](Cc2c[nH]cn2)C(=O)N[C@@H](Cc2c[nH]c3ccccc23)C(=O)N1)C(=O)N[C@H](CCCNC(=N)N)C(=O)N[C@H](CCCNC(=N)N)C(N)=O
notes: Synthetic cyclic peptide; also called Chem. 5
For B1, the “MC1R cAMP EC50” value with human MC1 receptor [1] is 172 nM. The “MC4R cAMP EC50” value with human MC4 receptor [2] was 0.22 nM. For the same molecule, the IC50 in the assay with human MC1 receptor [3] was found to be 39.7 nM; with human MC4 receptor [4] it was 0.23 nM.

B2: Ac-c[Cys-Pro-His-D-Phe-His-Trp-Cys]-Pro-Pro-D-Arg-Glu-Nle-D-Arg-D-Arg-NH2 (peptide)
peptide: Ac-CPH[dF]HWCPP[dR]E[Nle][dR][dR]-NH2
modifications: disulfide 1-7
SMILES: CCCC[C@H](NC(=O)[C@H](CCC(=O)O)NC(=O)[C@@H](CCCNC(=N)N)NC(=O)[C@@H]1CCCN1C(=O)[C@@H]1CCCN1C(=O)[C@@H]1CSSC[C@H](NC(C)=O)C(=O)N2CCC[C@H]2C(=O)N[C@@H](Cc2c[nH]cn2)C(=O)N[C@H](Cc2ccccc2)C(=O)N[C@@H](Cc2c[nH]cn2)C(=O)N[C@@H](Cc2c[nH]c3ccccc23)C(=O)N1)C(=O)N[C@H](CCCNC(=N)N)C(=O)N[C@H](CCCNC(=N)N)C(N)=O
notes: Synthetic cyclic peptide; also called Chem. 4
As to B2, the “MC1R cAMP EC50” value in the assay with human MC1 receptor [1] was determined as 1070 nM. The “MC4R cAMP EC50” value in the assay with human MC4 receptor [2] was found to be 0.53 nM. Besides, the values for the IC50 in the assay with human MC1 receptor [3] and with human MC4 receptor [4] were 394 nM and 0.58 nM, respectively.
